This is an account of results in the supplement of paper PMC5998384.

Series [1] concerns HeLa Kyoto. As to the kind of experiment: melting temperature (median over replicates), in situ; higher = more thermally stable.
Series [2] relates to HeLa Kyoto. Put plainly: solubility in G1/S (NP-40 vs SDS abundance) (log2 ratio); higher = more soluble. Conditions: cell cycle stage: G1/S.
Series [3] concerns HeLa Kyoto. As to the kind of experiment: solubility change mitosis vs G1/S (difference of NP-40 vs SDS log2 ratios) (log2 ratio difference); higher = more soluble in mitosis.
In series [4] the test system is HeLa Kyoto. As to the kind of experiment: thermal stability score vs G1/S (z-score of summed log2 fold changes over temperatures); higher = more thermally stable than in G1/S.
The mark [5] stands for this setting: cell cycle stage: early G1 (4.5 h after nocodazole release).
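Wherever melting temperature (median over replicates), in situ is given: HeLa Kyoto cells synchronized by double thymidine or nocodazole block, proteins quantified by TMT10plex mass spectrometry, three independent biological replicates.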
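Wherever solubility change mitosis vs G1/S (difference of NP-40 vs SDS log2 ratios) is given: synchronized HeLa Kyoto cells (double thymidine block for G1/S, nocodazole release for mitosis), protein amounts in NP-40 versus SDS lysates quantified by mass spectrometry, three biological replicates.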
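Wherever solubility in G1/S (NP-40 vs SDS abundance) is given: HeLa Kyoto cells arrested at G1/S by double thymidine block, proteins quantified by TMT10plex mass spectrometry in mild NP-40 versus SDS extracts, three biological replicates.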
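Wherever thermal stability score vs G1/S (z-score of summed log2 fold changes over temperatures) is given: synchronized HeLa Kyoto cells, proteins quantified by TMT10plex mass spectrometry, three biological replicates, mitosis taken 0.5 h after nocodazole release, G1/S directly after double thymidine block.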

With “MSTEGGFGGTSSSDAQQSLQSFWPRVMEEIRNLTVKDFRVQELPLARIKKIMKLDEDVKMISAEAPVLFAKAAQIFITELTLRAWIHTEDNKRRTLQRNDIAMAITKFDQFDFLIDIVPRDELKPPKRQEEVRQSVTPAEPVQYYFTLAQQPTAVQVQGQQQGQQTTSSTTTIQPGQIIIAQPQQGQTTPVTMQVGEGQQVQIVQAQPQGQAQQAQSGTGQTMQVMQQIITNTGEIQQIPVQLNAGQLQYIRLAQPVSGTQVVQGQIQTLATNAQQGQRNASQGKPRRCLKETLQITQTEVQQGQQQFSQFTDGQRNSVQQARVSELTGEAEPREVKATGNSTPCTSSLPTTHPPSHRAGASCVCCSQPQQSSTSPPPSDALQWVVVEVSGTPNQLETHRELHAPLPGMTSLSPLHPSQQLYQIQQVTMPAGQDLAQPMFIQSANQPSDGQAPQVTGD [NFYC]”, the melting temperature with HeLa Kyoto [1] (cell cycle stage: G1/S) was determined as 54.7 °C; with HeLa Kyoto [1] (cell cycle stage: mitosis) it was 54.3 °C. Further, in the series with HeLa Kyoto [2], the “solubility in G1/S (log2)” value stood at 0.266. In addition, in the series with HeLa Kyoto [3], the “solubility change mitosis (log2)” value is -0.174. The results for the thermal stability score in the series with HeLa Kyoto [4] (setting [5]) and in the series on HeLa Kyoto [4] (cell cycle stage: mitosis) were -0.186 and -0.549, respectively.

For the sequence “MSTGGDFGNPLRKFKLVFLGEQSVGKTSLITRFMYDSFDNTYQATIGIDFLSKTMYLEDRTVRLQLWDTAGQERFRSLIPSYIRDSTVAVVVYDITNVNSFQQTTKWIDDVRTERGSDVIIMLVGNKTDLADKRQVSIEEGERKAKELNVMFIETSAKAGYNVKQLFRRVAAALPGMESTQDRSREDMIDIKLEKPQEQPVSEGGCSC [RAB6A]”, the figures for the melting temperature in the series with HeLa Kyoto [1] (cell cycle stage: G1/S) and in the series with HeLa Kyoto [1] (cell cycle stage: mitosis) were 56.5 °C and 57.1 °C, respectively. For the same sequence, the “solubility in G1/S (log2)” value in the series on HeLa Kyoto [2] is -0.0491. In the series with HeLa Kyoto [3], the “solubility change mitosis (log2)” value was -0.0808. Also, the thermal stability score with HeLa Kyoto [4] (setting [5]) was -2.97; in the series on HeLa Kyoto [4] (cell cycle stage: mitosis) it was -6.05.

On to “MSTKQITCRYFMHGVCREGSQCLFSHDLANSKPSTICKYYQKGYCAYGTRCRYDHTRPSAAAGGAVGTMAHSVPSPAFHSPHPPSEVTASIVKTNSHEPGKREKRTLVLRDRNLSGMAERKTQPSMVSNPGSCSDPQPSPEMKPHSYLDAIRSGLDDVEASSSYSNEQQLCPYAAAGECRFGDACVYLHGEVCEICRLQVLHPFDPEQRKAHEKICMLTFEHEMEKAFAFQASQDKVCSICMEVILEKASASERRFGILSNCNHTYCLSCIRQWRCAKQFENPIIKSCPECRVISEFVIPSVYWVEDQNKKNELIEAFKQGMGKKACKYFEQGKGTCPFGSKCLYRHAYPDGRLAEPEKPRKQLSSQGTVRFFNSVRLWDFIENRESRHVPNNEDVDMTELGDLFMHLSGVESSEP [MKRN2]”, for which the melting temperature in the series with HeLa Kyoto [1] (cell cycle stage: G1/S) is 46.5 °C; with HeLa Kyoto [1] (cell cycle stage: mitosis), 48.6 °C. In addition, in the series on HeLa Kyoto [2], the “solubility in G1/S (log2)” value was determined as 0.161. The “solubility change mitosis (log2)” value with HeLa Kyoto [3] was -0.033. Besides, the thermal stability score came to 0.686 in the series on HeLa Kyoto [4] (setting [5]) and 1.44 in the series with HeLa Kyoto [4] (cell cycle stage: mitosis).

With “MSTSWSDRLQNAADMPANMDKHALKKYRREAYHRVFVNRSLAMEKIKCFGFDMDYTLAVYKSPEYESLGFELTVERLVSIGYPQELLSFAYDSTFPTRGLVFDTLYGNLLKVDAYGNLLVCAHGFNFIRGPETREQYPNKFIQRDDTERFYILNTLFNLPETYLLACLVDFFTNCPRYTSCETGFKDGDLFMSYRSMFQDVRDAVDWVHYKGSLKEKTVENLEKYVVKDGKLPLLLSRMKEVGKVFLATNSDYKYTDKIMTYLFDFPHGPKPGSSHRPWQSYFDLILVDARKPLFFGEGTVLRQVDTKTGKLKIGTYTGPLQHGIVYSGGSSDTICDLLGAKGKDILYIGDHIFGDILKSKKRQGWRTFLVIPELAQELHVWTDKSSLFEELQSLDIFLAELYKHLDSSSNERPDISSIQRRIKKVTHDMDMCYGMMGSLFRSGSRQTLFASQVMRYADLYAASFINLLYYPFSYLFRAAHVLMPHESTVEHTHVDINEMESPLATRNRTSVDFKDTDYKRHQLTRSISEIKPPNLFPLAPQEITHCHDEDDDEEEEEEEE [NT5C2]”, the melting temperature is 56.5 °C with HeLa Kyoto [1] (cell cycle stage: G1/S) and 56.3 °C in the series on HeLa Kyoto [1] (cell cycle stage: mitosis). Besides, the “solubility in G1/S (log2)” value in the series with HeLa Kyoto [2] was -0.096. In the series on HeLa Kyoto [3], the “solubility change mitosis (log2)” value was -0.133. In addition, the results for the thermal stability score in the series on HeLa Kyoto [4] (setting [5]) and in the series on HeLa Kyoto [4] (cell cycle stage: mitosis) were -0.51 and -1.23, respectively.

As for “MSVSLVVIRLELAEHSPVPAGFGFSAAAGEMSDEEIKKTTLASAVACLEGKSPGEKVAIIHQHLGRREMTDVIIETMKSNPDELKTTVEERKSSEASPTAQRSKDHSKECINAAPDSPSKQLPDQISFFSGNPSVEIVHGIMHLYKTNKMTSLKEDVRRSAMLCILTVPAAMTSHDLMKFVAPFNEVIEQMKIIRDSTPNQYMVLIKFRAQADADSFYMTCNGRQFNSIEDDVCQLVYVERAEVLKSEDGASLPVMDLTELPKCTVCLERMDESVNGILTTLCNHSFHSQCLQRWDDTTCPVCRYCQTPEPVEENKCFECGVQENLWICLICGHIGCGRYVSRHAYKHFEETQHTYAMQLTNHRVWDYAGDNYVHRLVASKTDGKIVQYECEGDTCQEEKIDALQLEYSYLLTSQLESQRIYWENKIVRIEKDTAEEINNMKTKFKETIEKCDNLEHKLNDLLKEKQSVERKCTQLNTKVAKLTNELKEEQEMNKCLRANQVLLQNKLKEEERVLKETCDQKDLQITEIQEQLRDVMFYLETQQKINHLPAETRQEIQEGQINIAMASASSPASSGGSGKLPSRKGRSKRGK [BRAP]”, the melting temperature with HeLa Kyoto [1] (cell cycle stage: G1/S) was determined as 50.3 °C; with HeLa Kyoto [1] (cell cycle stage: mitosis), 50.2 °C. Moreover, the “solubility in G1/S (log2)” value in the series on HeLa Kyoto [2] is 0.1. Moreover, the “solubility change mitosis (log2)” value in the series on HeLa Kyoto [3] is -0.181. Further, the thermal stability score in the series with HeLa Kyoto [4] (setting [5]) turned out to be 0.558; in the series on HeLa Kyoto [4] (cell cycle stage: mitosis) it was 1.83.

As for “MSVVGLDVGSQSCYIAVARAGGIETIANEFSDRCTPSVISFGSKNRTIGVAAKNQQITHANNTVSNFKRFHGRAFNDPFIQKEKENLSYDLVPLKNGGVGIKVMYMGEEHLFSVEQITAMLLTKLKETAENSLKKPVTDCVISVPSFFTDAERRSVLDAAQIVGLNCLRLMNDMTAVALNYGIYKQDLPSLDEKPRIVVFVDMGHSAFQVSACAFNKGKLKVLGTAFDPFLGGKNFDEKLVEHFCAEFKTKYKLDAKSKIRALLRLYQECEKLKKLMSSNSTDLPLNIECFMNDKDVSGKMNRSQFEELCAELLQKIEVPLYSLLEQTHLKVEDVSAVEIVGGATRIPAVKERIAKFFGKDISTTLNADEAVARGCALQCAILSPAFKVREFSVTDAVPFPISLIWNHDSEDTEGVHEVFSRNHAAPFSKVLTFLRRGPFELEAFYSDPQGVPYPEAKIGRFVVQNVSAQKDGEKSRVKVKVRVNTHGIFTISTASMVEKVPTEENEMSSEADMECLNQRPPENPDTDKNVQQDNSEAGTQPQVQTDAQQTSQSPPSPELTSEENKIPDADKANEKKVDQPPEAKKPKIKVVNVELPIEANLVWQLGKDLLNMYIETEGKMIMQDKLEKERNDAKNAVEEYVYEFRDKLCGPYEKFICEQDHQNFLRLLTETEDWLYEEGEDQAKQAYVDKLEELMKIGTPVKVRFQEAEERPKMFEELGQRLQHYAKIAADFRNKDEKYNHIDESEMKKVEKSVNEVMEWMNNVMNAQAKKSLDQDPVVRAQEIKTKIKELNNTCEPVVTQPKPKIESPKLERTPNGPNIDKKEEDLEDKNNFGAEPPHQNGECYPNEKNSVNMDLD [HSPH1]”, the melting temperature in the series on HeLa Kyoto [1] (cell cycle stage: G1/S) worked out at 50.2 °C; in the series with HeLa Kyoto [1] (cell cycle stage: mitosis), 49.7 °C. Also, the “solubility in G1/S (log2)” value in the series with HeLa Kyoto [2] is 0.203. The “solubility change mitosis (log2)” value with HeLa Kyoto [3] was -0.0593. The thermal stability score in the series on HeLa Kyoto [4] (setting [5]) is 1.34; in the series with HeLa Kyoto [4] (cell cycle stage: mitosis), 1.52.

As to “MSWFNASQLSSFAKQALSQAQKSIDRVLDIQEEEPSIWAETIPYGEPGISSPVSGGWDTSTWGLKSNTEPQSPPIASPKAITKPVRRTVVDESENFFSAFLSPTDVQTIQKSPVVSKPPAKSQRPEEEVKSSLHESLHIGQSRTPETTESQVKDSSLCVSGETLAAGTSSPKTEGKHEETVNKESDMKVPTVSLKVSESVIDVKTTMESISNTSTQSLTAETKDIALEPKEQKHEDRQSNTPSPPVSTFSSGTSTTSDIEVLDHESVISESSASSRQETTDSKSSLHLMQTSFQLLSASACPEYNRLDDFQKLTESCCSSDAFERIDSFSVQSLDSRSVSEINSDDELSGKGYALVPIIVNSSTPKSKTVESAEGKSEEVNETLVIPTEEAEMEESGRSATPVNCEQPDILVSSTPINEGQTVLDKVAEQCEPAESQPEALSEKEDVCKTVEFLNEKLEKREAQLLSLSKEKALLEEAFDNLKDEMFRVKEESSSISSLKDEFTQRIAEAEKKVQLACKERDAAKKEIKNIKEELATRLNSSETADLLKEKDEQIRGLMEEGEKLSKQQLHNSNIIKKLRAKDKENENMVAKLNKKVKELEEELQHLKQVLDGKEEVEKQHRENIKKLNSMVERQEKDLGRLQVDMDELEEKNRSIQAALDSAYKELTDLHKANAAKDSEAQEAALSREMKAKEELSAALEKAQEEARQQQETLAIQVGDLRLALQRTEQAAARKEDYLRHEIGELQQRLQEAENRNQELSQSVSSTTRPLLRQIENLQATLGSQTSSWEKLEKNLSDRLGESQTLLAAAVERERAATEELLANKIQMSSMESQNSLLRQENSRFQAQLESEKNRLCKLEDENNRYQVELENLKDEYVRTLEETRKEKTLLNSQLEMERMKVEQERKKAIFTQETIKEKERKPFSVSSTPTMSRSSSISGVDMAGLQTSFLSQDESHDHSFGPMPISANGSNLYDAVRMGAGSSIIENLQSQLKLREGEITHLQLEIGNLEKTRSIMAEELVKLTNQNDELEEKVKEIPKLRTQLRDLDQRYNTILQMYGEKAEEAEELRLDLEDVKNMYKTQIDELLRQSLS [TMF1]”, the melting temperature with HeLa Kyoto [1] (cell cycle stage: G1/S) amounted to 54.5 °C; with HeLa Kyoto [1] (cell cycle stage: mitosis), 54.4 °C. In addition, the “solubility in G1/S (log2)” value in the series with HeLa Kyoto [2] worked out at 0.0833. Moreover, the “solubility change mitosis (log2)” value with HeLa Kyoto [3] was -0.065. The thermal stability score with HeLa Kyoto [4] (setting [5]) is -2.48; with HeLa Kyoto [4] (cell cycle stage: mitosis), -0.992.
